In the RNAGym collection of RNA variant scans (doi:10.1093/molbev/msab373):

B1: Azoarcus group I ribozyme (parent)
chain: GUGCCUUGCGCCGGGAAACCACGCAAGGGAUGGUGUCAAAUUCGGCGAAACCUAAGCGCCCGCCCGGGCGUAUGGCAACGCCGAGCCAAGCUUCGGCGCCUGCGCCGAUGAAGGUGUAGAGACUAGACGGCACCCACCUAAGGCAAACGCUAUGGUGAAGGCAUAGUCCAGGGAGUGGCGAAAGUCACACAAACCGG

Variants of: B1
Assay: reverse-splicing fitness (ratio to wild type); higher = more active; in vitro selection; Mg2+ level not given
In short: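 An in vitro group I ribozyme library with randomized positions was T7-transcribed and gel-purified. In triplicate, 10 pmol RNA in EPPS pH 7.5 was reacted with 50 pmoles of a 30-nt RNA substrate for 1 h at 37 °C across several added MgCl2 levels (1–48 mM), then stopped with EDTA. Products were reverse transcribed from a substrate-complementary primer, PCR-amplified and sequenced (HiSeq 4000). Fitness is a variant's read proportion after selection over that before, normalised to wild type.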

Row | Variant | reverse-splicing fitness
1 | C82G A120G A145U C150G C169A U176G | 0.00431
2 | C82G A120G A145U C150G C169A U176C | 0.0121
3 | C82G A120U A145G | 0.229
4 | C82G A120U A145U | 0.23
5 | C82G A120U A145C | 0.204
6 | C82G A120U A145G C150G C169A U176G | 0.00485
7 | C82G A120U A145G C150G C169A U176A | 0.012
8 | C82G A120U A145G C150G C169A U176C | 0.00809
9 | C82G A120G C150U C169A U176G | 0.00527
10 | C82G A120G C150U C169A U176A | 0.0184
11 | C82G A120G C150U C169A U176C | 0.0189
12 | C82G A120U A145U C169U U176A | 0.00334
13 | C82G A120U A145U C169U U176C | 0.00402
14 | C82G A120U A145U C169U U176G | 0.00148
15 | C82G A120U A145C C150G C169G | 0.00253
16 | C82G A120U A145C C150G C169U | 0.00302
17 | C82G A120U A145C C150G C169A | 0.00195
18 | C82G A120U A145C C150U C169U U176A | 0.00246
19 | C82G A120U A145C C150U C169U U176C | 0.00227
20 | C82G A120U A145C C150U C169U U176G | 0.00165
21 | C82G A120G C150A C169G U176G | 0.00479

Row | Variant | reverse-splicing fitness
22 | C82G A120G C150A C169G U176C | 0.0228
23 | C82G A120G C150A C169G U176A | 0.0215
24 | C82G A120G A145U C150A C169U U176C | 0.0145
25 | C82G A120G A145U C150A C169U U176A | 0.02
26 | C82G A120G A145U C150A C169U U176G | 0.00418
27 | C82G A120G C150U C169U U176C | 0.0203
28 | C82G A120G C150U C169U U176A | 0.023
29 | C82G A120G C150U C169U U176G | 0.00651
30 | C82G A120U A145G C150G C169G U176G | 0.00411
31 | C82G A120U A145G C150G C169G U176A | 0.00901
32 | C82G A120U A145G C150G C169G U176C | 0.00637
33 | C82G A120G A145G C169A U176A | 0.0185
34 | C82G A120G A145G C169A U176C | 0.0269
35 | C82G A120G A145G C169A U176G | 0.00439
36 | C82G A120U A145C C169G U176A | 0.00239
37 | C82G A120U A145C C169G U176C | 0.00261
38 | C82G A120U A145C C169G U176G | 0.00141
39 | C82G A120U A145G C169U | 0.00713
40 | C82G A120U A145G C169A | 0.00321
41 | C82G A120U A145G C169G | 0.00688
42 | C82G A120U A145U U176C | 0.116

Row | Variant | reverse-splicing fitness
43 | C82G A120U A145U U176A | 0.0782
44 | C82G A120U A145C C169U U176A | 0.00266
45 | C82G A120U A145C C169U U176G | 0.00148
46 | C82G A120U A145C C169U U176C | 0.00223
47 | C82G A120G A145U C150U C169G U176C | 0.0218
48 | C82G A120G A145U C150U C169G U176G | 0.00476
49 | C82G A120G A145U C150U C169G U176A | 0.015
50 | C82G A120U A145U C150U | 0.131
51 | C82G A120U A145U C150G | 0.0173
52 | C82G A120U A145U C150A | 0.0151
53 | C82G A120G A145U C150U U176C | 0.0189
54 | C82G A120G A145U C150U U176G | 0.00475
55 | C82G A120G A145U C150U U176A | 0.0121
56 | C82G A120G A145U C169G U176C | 0.0227
57 | C82G A120G A145U C169G U176A | 0.0157
58 | C82G A120G A145U C169G U176G | 0.00374
59 | C82G A120G C150G C169G U176A | 0.00768
60 | C82G A120G C150G C169G U176G | 0.00466
61 | C82G A120G C150G C169G U176C | 0.00511
62 | C82G A120U A145C C169A U176G | 0.00157
63 | C82G A120U A145C C169A U176C | 0.00168

Row | Variant | reverse-splicing fitness
64 | C82G A120U A145C C169A U176A | 0.00185
65 | C82G A120U A145G U176A | 0.0724
66 | C82G A120U A145G U176C | 0.11
67 | C82G A120U A145G U176G | 0.0134
68 | C82G A120U A145G C150A C169G | 0.00459
69 | C82G A120U A145G C150A C169U | 0.00376
70 | C82G A120U A145G C150A C169A | 0.00575
71 | C82G A120U A145G C150A C169A U176A | 0.00645
72 | C82G A120U A145G C150A C169A U176G | 0.00256
73 | C82G A120U A145G C150A C169A U176C | 0.00287
74 | C82G A120G A145U U176G | 0.0047
75 | C82G A120G A145U U176A | 0.0157
76 | C82G A120G A145U U176C | 0.0191
77 | C82G A120G A145U C150U C169A | 0.0199
78 | C82G A120G A145U C150U C169G | 0.0343
79 | C82G A120G A145U C150U C169U | 0.0183
80 | C82G A120G A145U | 0.0294
81 | C82G A120U A145G C150G C169A | 0.00872
82 | C82G A120U A145G C150G C169G | 0.0074
83 | C82G A120U A145G C150G C169U | 0.00739
